T1: Yap1 bZIP (Aspergillus fumigatus, UniProt Q4WMH0 135-234)
T1 sequence: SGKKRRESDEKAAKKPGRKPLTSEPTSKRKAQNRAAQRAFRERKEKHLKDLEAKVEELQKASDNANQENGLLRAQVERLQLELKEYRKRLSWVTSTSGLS

B1: cccA-369 (dsDNA)
DNA 1: AAATCCACCAATCAACGCCTCCGTGATTGTCAGCAAT
DNA 2: ATTGCTGACAATCACGGAGGCGTTGATTGGTGGATTT
B2: cyp51A-293 (dsDNA)
DNA 1: GCTGAGCCGAATGAAAGTTGCCTAATTACTAAGGTGT
DNA 2: ACACCTTAGTAATTAGGCAACTTTCATTCGGCTCAGC

What was measured:
Assay in all cases: SPR
[1] = target: A. fumigatus CCAAT-binding complex (CBC) consisting of HapB(230–299), HapC(40–137) and HapE(47–164) (Aspergillus fumigatus)
[2] = target: HapX dCBC-BD (Aspergillus fumigatus, UniProt Q4WER3 59-158)
[3] = target: T1, Yap1 bZIP

Molecule | apparent KD with cccA-369 promoter DNA (HapX on preformed CBC:DNA) [1] [nM] | apparent KD with cox6 promoter DNA (HapX on preformed CBC:DNA) [1] [nM] | apparent KD with hemH promoter DNA (HapX on preformed CBC:DNA) [1] [nM] | binding signal [2] [fold increase vs HapX] | Kd [3] [nM]
A. fumigatus HapX(24–158) (from UniProt Q4WER3 24-158) (domain or fragment) | 0.4 | 3600 | 121 |  | 
B1 |  |  |  | 3 | 50
B2 |  |  |  |  | 13

Source: article PMC7144946
